Where two headings read alike, the source gives them in different places. Non-standard residues stand in square brackets, D forms with d. No end group written: not given here. *: point of attachment. Phe(F5) = N[C@@H](Cc1c(F)c(F)c(F)c(F)c1F)C(=O)O; Desaminotyrosyl = O=C(CCc1ccc(O)cc1)*; NMeY = CN[C@@H](Cc1ccc(O)cc1)C(=O)O; Agmatine = N=C(N)NCCCCN*; Nle = CCCC[C@H](N)C(=O)O; Orn = NCCC[C@H](N)C(=O)O; Abu = CC[C@H](N)C(=O)O; GABA = NCCCC(=O)O

The target of experiment [1] is T1, GHRH receptor (membrane receptors of human anterior pituitary cells) (human) (UniProt Q02643).
T1 sequence (looked up): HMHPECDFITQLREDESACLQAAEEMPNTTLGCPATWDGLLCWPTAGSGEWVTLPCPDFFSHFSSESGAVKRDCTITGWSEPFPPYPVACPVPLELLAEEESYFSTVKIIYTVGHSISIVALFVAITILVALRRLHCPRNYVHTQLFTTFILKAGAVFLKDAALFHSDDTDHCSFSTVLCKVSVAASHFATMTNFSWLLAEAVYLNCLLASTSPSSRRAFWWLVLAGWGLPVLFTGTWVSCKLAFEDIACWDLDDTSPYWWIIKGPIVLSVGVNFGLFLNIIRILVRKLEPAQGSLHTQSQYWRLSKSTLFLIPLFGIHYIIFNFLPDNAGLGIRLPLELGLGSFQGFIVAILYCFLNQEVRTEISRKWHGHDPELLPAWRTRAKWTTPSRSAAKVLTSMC
Put plainly: competition with [His1,125I-Tyr10,Nle27]hGHRH(1-32)NH2, human pituitary membranes.

The target of experiment [2] is T2, GHRH receptor (membrane receptors of human anterior pituitary cells) (human, UniProt Q02643 23-423).
T2 construct: whole, on cells; Native receptor in a membrane fraction of purchased normal human pituitaries, not intact cells; also called hGHRH receptor; human pituitary membrane homogenates
T2 sequence (looked up): T1 sequence (looked up)
Description: competition with 125I-JV-1-42, human pituitary membranes. As to the method: (§1) Normal human pituitaries were purchased from the National Hormone and Peptide Program (A. F. Parlow, Los Angeles, County Harbor-UCLA Medical Center, Torrance, Calif.).
The final binding affinities were expressed as IC₅₀ values and were calculated by using the LIGAND PC computerized curve-fitting program of Munson and Rodbard as modified by McPherson.

The target in experiment [3] is T2, GHRH receptor (membrane receptors of …). The experiment is described as above.
Description: as §1
This is another data set of the same source.

The target is the same in experiment [4]. Description: competition with 125I-[His1,Nle27]hGHRH(1-32)NH2, human pituitary membranes.
The target in experiment [5] is T1, GHRH receptor (membrane receptors of human anterior pituitary cells) (human). Put plainly: competition with 125I-JV-1-42, human pituitary membranes.
Experiment [6] has the same target. Described as above. This is another data set of the same source.
The target is the same in experiment [7]. Put plainly: competition with 125I-[His1,Nle27]hGHRH(1-32)NH2, human pituitary membranes.
Experiment [8] deals with T3, GHRH receptor (membrane receptors of human anterior pituitary cells) (human), Q02643.
T3 chain: T1 sequence (looked up)
Description: competition with 125I-JV-1-42, human pituitary membranes.

The target in experiment [9] is T2, GHRH receptor (membrane receptors of …). Description: competition with [His1,125I-Tyr10,Nle27]hGHRH(1-32)NH2, human pituitary membranes. The source says: Normal human pituitaries were purchased from the National Hormone and Peptide Program (A. F. Parlow, Los Angeles, County Harbor—UCLA Medical Center, Torrance, Calif.).

Broadly, the IC50 is the concentration that inhibits the measured activity by half. As for JI-36 (peptide), in experiment [1], the IC50 came to 1.82 nM and the Relative affinity (Binding potency) vs GHRH (GHRH(1-29) = 1) worked out at 3.25.
The matching figures for JI-34 (peptide): 1.37 nM and 4.32.

B1: P-25502 [Dat^1, D-Ala^2, Fpa5^6, Orn^12, Abu^15, Orn^21, Nle^27, Gab^30]hGHRH(1-30)NH2 (peptide)
peptide: [Desaminotyrosyl][dA]DAI[Phe(F5)]TNSYR[Orn]VL[Abu]QLSAR[Orn]LLQDI[Nle]SR[GABA]-NH2
SMILES: CCCC[C@H](NC(=O)[C@@H](NC(=O)[C@H](CC(=O)O)NC(=O)[C@H](CCC(N)=O)NC(=O)[C@H](CC(C)C)NC(=O)[C@H](CC(C)C)NC(=O)[C@H](CCCN)NC(=O)[C@H](CCCNC(=N)N)NC(=O)[C@H](C)NC(=O)[C@H](CO)NC(=O)[C@H](CC(C)C)NC(=O)[C@H](CCC(N)=O)NC(=O)[C@H](CC)NC(=O)[C@H](CC(C)C)NC(=O)[C@@H](NC(=O)[C@H](CCCN)NC(=O)[C@H](CCCNC(=N)N)NC(=O)[C@H](Cc1ccc(O)cc1)NC(=O)[C@H](CO)NC(=O)[C@H](CC(N)=O)NC(=O)[C@@H](NC(=O)[C@H](Cc1c(F)c(F)c(F)c(F)c1F)NC(=O)[C@@H](NC(=O)[C@H](C)NC(=O)[C@H](CC(=O)O)NC(=O)[C@@H](C)NC(=O)CCc1ccc(O)cc1)[C@@H](C)CC)[C@@H](C)O)C(C)C)[C@@H](C)CC)C(=O)N[C@@H](CO)C(=O)N[C@@H](CCCNC(=N)N)C(=O)NCCCC(N)=O
notes: also called MR-502; Peptide 25502
Turning to B1, in [2], the IC50 was 0.07 nM, the “Relative affinity (Binding potency) vs GHRH” value was 58 GHRH(1-29) = 1 and the “Relative affinity (Binding potency) vs JI-38” value (“Relative affinity … vs JI-38” below) is 24.4 JI-38 = 1. Also, in experiment [3], the IC50 came to 0.33 nM and the “Relative affinity … vs JI-38” value was 13.2 JI-38 = 1. In addition, in experiment [4], the half-inhibitory concentration (IC50) worked out at 2.16 nM, the “Relative affinity (Binding potency) compared to JI-38” value (“Relative affinity … to JI-38” below) came out at 1.27 JI-38 = 1 and the “Relative affinity (Binding potency) compared to hGHRH(1-29)” value is 3.54 hGHRH(1-29)NH2 = 1.

B2: P-20356 [N-Me-Tyr^1, Gln^8, Orn^12, Abu^15, Orn^21, Nle^27, Asp^28, Agm^29]hGHRH(1-29)NH2 (peptide, from a related filing)
peptide: [NMeY]ADAIFTQSYR[Orn]VL[Abu]QLSAR[Orn]LLQDI[Nle]D[Agmatine]
modifications: not fully specified (C-terminus)
In [5], B2 came in with an IC50 of 0.01 nM, a Relative affinity (Binding potency) vs GHRH (GHRH(1-29) = 1) of 406 and a Relative affinity (Binding potency) vs JI-38 of 171 JI-38 = 1. Further, in [6], the IC50 is 0.27 nM and the Relative affinity (Binding potency) vs JI-38 worked out at 16.1 JI-38 = 1. In experiment [7], this molecule registered an IC50 of 1.02 nM, a Relative affinity (Binding potency) compared to JI-38 of 2.69 JI-38 = 1 and a Relative affinity (Binding potency) compared to hGHRH(1-29) (hGHRH(1-29)NH2 = 1) of 7.5.

B3: P-29703 [N-Me-Tyr^1, Gln^8, Orn^12, Abu^15, Orn^21, Nle^27, Gln-Gab^30]hGHRH(1-30)NH2 (peptide)
chain: [NMeY]ADAIFTQSYR[Orn]VL[Abu]QLSAR[Orn]LLQDI[Nle]SRQ[GABA]-NH2
modifications: N-terminus assumed
SMILES: CCCC[C@H](NC(=O)[C@@H](NC(=O)[C@H](CC(=O)O)NC(=O)[C@H](CCC(N)=O)NC(=O)[C@H](CC(C)C)NC(=O)[C@H](CC(C)C)NC(=O)[C@H](CCCN)NC(=O)[C@H](CCCNC(=N)N)NC(=O)[C@H](C)NC(=O)[C@H](CO)NC(=O)[C@H](CC(C)C)NC(=O)[C@H](CCC(N)=O)NC(=O)[C@H](CC)NC(=O)[C@H](CC(C)C)NC(=O)[C@@H](NC(=O)[C@H](CCCN)NC(=O)[C@H](CCCNC(=N)N)NC(=O)[C@H](Cc1ccc(O)cc1)NC(=O)[C@H](CO)NC(=O)[C@H](CCC(N)=O)NC(=O)[C@@H](NC(=O)[C@H](Cc1ccccc1)NC(=O)[C@@H](NC(=O)[C@H](C)NC(=O)[C@H](CC(=O)O)NC(=O)[C@H](C)NC(=O)[C@H](Cc1ccc(O)cc1)NC)[C@@H](C)CC)[C@@H](C)O)C(C)C)[C@@H](C)CC)C(=O)N[C@@H](CO)C(=O)N[C@@H](CCCNC(=N)N)C(=O)N[C@@H](CCC(N)=O)C(=O)NCCCC(N)=O
As to B3, in experiment [8], the IC50 amounted to 1.22 nM and the Relative affinity (Binding potency) vs JI-38 was found to be 3.57 JI-38 = 1.

B4: JI-38 [Dat^1, Gln^8, Orn^12,21, Abu^15, Nle^27, Asp^28, Agm^29]hGHRH(1-29)NH2 (peptide)
peptide: [Desaminotyrosyl]ADAIFTQSYR[Orn]VL[Abu]QLSAR[Orn]LLQDI[Nle]D[Agmatine]
SMILES: CCCC[C@H](NC(=O)[C@@H](NC(=O)[C@H](CC(=O)O)NC(=O)[C@H](CCC(N)=O)NC(=O)[C@H](CC(C)C)NC(=O)[C@H](CC(C)C)NC(=O)[C@H](CCCN)NC(=O)[C@H](CCCNC(=N)N)NC(=O)[C@H](C)NC(=O)[C@H](CO)NC(=O)[C@H](CC(C)C)NC(=O)[C@H](CCC(N)=O)NC(=O)[C@H](CC)NC(=O)[C@H](CC(C)C)NC(=O)[C@@H](NC(=O)[C@H](CCCN)NC(=O)[C@H](CCCNC(=N)N)NC(=O)[C@H](Cc1ccc(O)cc1)NC(=O)[C@H](CO)NC(=O)[C@H](CCC(N)=O)NC(=O)[C@@H](NC(=O)[C@H](Cc1ccccc1)NC(=O)[C@@H](NC(=O)[C@H](C)NC(=O)[C@H](CC(=O)O)NC(=O)[C@H](C)NC(=O)CCc1ccc(O)cc1)[C@@H](C)CC)[C@@H](C)O)C(C)C)[C@@H](C)CC)C(=O)N[C@@H](CC(=O)O)C(=O)NCCCCNC(=N)N
notes: Non-coded residues replacing another residue are written X
For the molecule B4, in [2], the IC50 was 1.71 nM, the “Relative affinity (Binding potency) vs GHRH” value is 2.4 GHRH(1-29) = 1 and the “Relative affinity … vs JI-38” value was 1 JI-38 = 1. In [3], the IC50 turned out to be 4.35 nM and the “Relative affinity … vs JI-38” value was 1 JI-38 = 1. Further, in [4], the IC50 was 2.74 nM, the “Relative affinity … to JI-38” value was found to be 1 JI-38 = 1 and the “Relative affinity (Binding potency) compared to hGHRH(1-29)” value is 2.79 hGHRH(1-29)NH2 = 1. Further, in [9], the IC50 was 1.95 nM, the “Relative affinity (Binding potency) vs GHRH” value was 3.03 GHRH(1-29) = 1 and the “Relative affinity … vs JI-38” value came to 1 JI-38 = 1.

B5: P-29702 [Dat^1, D-Ala^2, Orn^12, Abu^15, Orn^21, Nle^27, Gln-Gab^30]hGHRH(1-30)NH2 (peptide)
peptide: [Desaminotyrosyl][dA]DAIFTNSYR[Orn]VL[Abu]QLSAR[Orn]LLQDI[Nle]SRQ[GABA]-NH2
SMILES: CCCC[C@H](NC(=O)[C@@H](NC(=O)[C@H](CC(=O)O)NC(=O)[C@H](CCC(N)=O)NC(=O)[C@H](CC(C)C)NC(=O)[C@H](CC(C)C)NC(=O)[C@H](CCCN)NC(=O)[C@H](CCCNC(=N)N)NC(=O)[C@H](C)NC(=O)[C@H](CO)NC(=O)[C@H](CC(C)C)NC(=O)[C@H](CCC(N)=O)NC(=O)[C@H](CC)NC(=O)[C@H](CC(C)C)NC(=O)[C@@H](NC(=O)[C@H](CCCN)NC(=O)[C@H](CCCNC(=N)N)NC(=O)[C@H](Cc1ccc(O)cc1)NC(=O)[C@H](CO)NC(=O)[C@H](CC(N)=O)NC(=O)[C@@H](NC(=O)[C@H](Cc1ccccc1)NC(=O)[C@@H](NC(=O)[C@H](C)NC(=O)[C@H](CC(=O)O)NC(=O)[C@@H](C)NC(=O)CCc1ccc(O)cc1)[C@@H](C)CC)[C@@H](C)O)C(C)C)[C@@H](C)CC)C(=O)N[C@@H](CO)C(=O)N[C@@H](CCCNC(=N)N)C(=O)N[C@@H](CCC(N)=O)C(=O)NCCCC(N)=O
notes: also called MR-702; Peptide 29702
With B5, in experiment [2], the IC50 is 0.05 nM, the “Relative affinity (Binding potency) vs GHRH” value was 81.2 GHRH(1-29) = 1 and the “Relative affinity … vs JI-38” value stood at 34.2 JI-38 = 1. Moreover, in experiment [3], the IC50 was 0.86 nM and the “Relative affinity … vs JI-38” value was found to be 5.06 JI-38 = 1. In experiment [4], the IC50 amounted to 3.3 nM, the “Relative affinity … to JI-38” value came to 0.83 JI-38 = 1 and the “Relative affinity (Binding potency) compared to hGHRH(1-29)” value is 2.31 hGHRH(1-29)NH2 = 1.
